Data from article PMC4710668, “Bioactivation of food genotoxicants 5-hydroxymethylfurfural and furfuryl alcohol by sulfotransferases from human, mouse and rat: a comparative study” (Archives of Toxicology, 2014).

Legend:
Experiment in all cases: HMF sulfoconjugation assay
Conditions in all cases: other: catalytic efficiency of HMF sulfoconjugation; pH 7.4
[1] = system: T1, O=Cc1ccc(CO)o1; format: biochemical, human
T1 construct: made in house; host or cells: Salmonella typhimurium TA1538 (cytosolic fraction, not purified)
Procedure: (§1) Cytosolic fractions containing individual SULT forms were prepared from transgenic S. typhimurium TA1538. Table S1 in the Supplementary Material provides a summary of the thirty SULTs used in the current study together with references describing the cloning of the respective S. typhimurium TA1538 strains. The expressed SULT forms are denoted with the prefixes h, m and r for human, mouse and rat enzymes, respectively. Bacteria were grown in Luria Broth medium containing ampicillin (100 µg/ml) by stirring for 8 h at 200 revolutions/min at 37 °C. The bacterial suspensions were centrifuged at 5,000 g for 10 min. […] The protein concentrations were determined according to a bicinchoninic acid (BCA) assay protocol. […]
(§2) The reactions were conducted in mixtures of 100 µl containing 25–200 µg protein, 50 mM potassium phosphate buffer (pH 7.4), 5 mM MgCl2, 50 µM PAPS and different concentrations of HMF at 37 °C. Preliminary experiments ensured that measurements were recorded under ‘linear’ conditions, i.e., doubling of protein concentration or incubation time was doubling the amount of sulfate ester formed. […]
(§3) SMF concentrations of the clear supernatants were analyzed by UPLC-MS/MS. The protocol was adapted from the quantification of SMF in plasma samples of HMF-treated mice (Monien et al. [2009]). […]

[2] = system: T2, O=Cc1ccc(CO)o1; format: biochemical, mouse
T2 construct: made in house; host or cells: Salmonella typhimurium TA1538 (cytosolic fraction, enzyme not purified)
Procedure: as §1, §2, §3

[3] = system: T2, O=Cc1ccc(CO)o1; format: biochemical, rat
Procedure: as §1, §2, §3

hSULT1B1 (Homo sapiens), sequence (chain, as listed by the source): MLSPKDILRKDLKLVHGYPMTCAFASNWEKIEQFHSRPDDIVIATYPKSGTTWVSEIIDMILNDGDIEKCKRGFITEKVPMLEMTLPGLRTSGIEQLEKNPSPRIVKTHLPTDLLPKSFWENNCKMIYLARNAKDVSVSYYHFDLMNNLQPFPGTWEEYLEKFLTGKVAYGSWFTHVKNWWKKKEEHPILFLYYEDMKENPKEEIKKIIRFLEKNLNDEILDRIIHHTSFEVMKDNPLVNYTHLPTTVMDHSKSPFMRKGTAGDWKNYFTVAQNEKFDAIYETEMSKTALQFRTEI
mSult1b1 (Mus musculus), sequence (chain, as listed by the source): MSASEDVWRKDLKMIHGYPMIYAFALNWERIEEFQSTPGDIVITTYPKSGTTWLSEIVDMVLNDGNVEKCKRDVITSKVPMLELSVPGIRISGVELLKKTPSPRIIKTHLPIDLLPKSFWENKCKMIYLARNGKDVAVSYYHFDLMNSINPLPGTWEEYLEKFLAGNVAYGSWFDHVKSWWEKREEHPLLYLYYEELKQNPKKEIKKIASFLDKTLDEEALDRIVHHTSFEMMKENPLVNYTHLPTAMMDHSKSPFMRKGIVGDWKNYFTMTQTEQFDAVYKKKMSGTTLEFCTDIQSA
rSult1b1 (Rattus norvegicus), sequence (chain, as listed by the source): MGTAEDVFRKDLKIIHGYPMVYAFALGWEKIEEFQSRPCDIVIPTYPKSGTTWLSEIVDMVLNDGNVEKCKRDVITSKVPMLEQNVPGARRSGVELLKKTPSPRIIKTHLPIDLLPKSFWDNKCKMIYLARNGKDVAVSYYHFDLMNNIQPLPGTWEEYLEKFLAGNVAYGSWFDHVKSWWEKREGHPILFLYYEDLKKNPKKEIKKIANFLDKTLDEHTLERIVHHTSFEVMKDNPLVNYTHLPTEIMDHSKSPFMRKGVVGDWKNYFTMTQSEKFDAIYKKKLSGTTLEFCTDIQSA

hSULT1B1 (Homo sapiens) was tested, and the kcat/Km [1] was 0.31 M⁻¹ s⁻¹.
Work on mSult1b1 (Mus musculus) yielded a kcat/Km [2] of 0.36 M⁻¹ s⁻¹.
For rSult1b1 (Rattus norvegicus), the kcat/Km [3] was 0.09 M⁻¹ s⁻¹.
